# Measured values from the nanobody polyreactivity screen of Harvey et al. (2022).
# Experiment: yeast display, Sf9 membrane polyspecificity reagent, FACS + sequencing; frameworks hold sequencing errors
# How it was run: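 After 36–48 hours of galactose induction, yeast (Saccharomyces cerevisiae BJ5465) displaying a synthetic nanobody library were stained at 4 °C for 1 hour with 10% biotinylated, detergent-solubilized Sf9 membrane reagent. Streptavidin microbeads enriched the stained cells before FACS sorting into low and high (top ~1%) gates on anti-HA and streptavidin fluorescence. Each clone's polyreactivity label reflects its gate of origin.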
row,Sequence,polyreactivity (PSR sort gate)
1,QVQLVESGGGLVQAGGSLRLICAASGRTFVPYAMGWYRQAPGKERELVAAISQSGGRTYYTDSVKGRFTISRDNAKNTVYLQMNSLKPEDTAVYYCAKRYIYRYVWGGGDYWGQGTQVTVSS,high polyreactivity
2,QVQLVESGGGLVQAGGSLRLICAASGRTFYRYAMGWYRQAPGKDRELVATISRSGGSTYYADSVKGRFTISRDNAKNTVYLQINSLKPEDTAVYYCAADIPSYYWWRAYDYWGQGTQVTVSS,low polyreactivity
3,QVQLVESGGGLVQAGGSLRLICAASGRTFYRYAMGWYRQAPGKERELVAAISRSGTTYYADSVKGRFTISRDNAKNTVYLQMNSLKPEDTAVYYCAAKPAGRQRGGDYWGQGTQVTVSS,high polyreactivity
4,QVQLVESGGGLVQAGGSLRLICAASGRTLGGNAMGWYRQAPGKERELVAAITNSASTYADSVKGRFTISRDNAKNTVYLQMNSLKPEDTAVYYCNAPDPSDQHGDYWGQGTQVTVSS,low polyreactivity
5,QVQLVESGGGLVQAGGSLRLICAASGRTLRRYAMGWYRQAPGKERELVAAISRSGSSTYADSVKGRFTISRDNAKNTVYLQMHSLKPEDTAVYYCNAYQPRYGYWGQGTQVTVSS,high polyreactivity
6,QVQLVESGGGLVQAGGSLRLICAASGRTYLWYTMGWYRQAPGKEREFVAAIWSGDSTYYADSVKGRFTISRDNAKNTVYLQMNSLKPEDTAVYYCAARRFRGSYYWGQGTQVTVSS,high polyreactivity
7,QVQLVESGGGLVQAGGSLRLICAASGSIFDSYTMGWYRQAPGKERELVAAISKNGGSTYYADSVKGRFTISRDNAKNTVYFQMNSLKPEDTAFYYCARSRSGYRYDYWGQGTQVTVSS,high polyreactivity
8,QVQLVESGGGLVQAGGSLRLICAASGSIFGYNAMGWYRQAPGKERELVAVINASGASTYYADSVKGRFTISRDNAKNTVYLQMNSLKPEDTAVYYCAKDPFPFPGGDYWGHGTQVTVSS,low polyreactivity
9,QVQLVESGGGLVQAGGSLRLICAASGSIFIHNAMGWYRPAPGKERELVAGITTGGSTYYADSVKGRFTISRDNAKNTVYLQMNSLKPEDTAVYYCAVKRPVALTRGNWVTEARDYWGQGTQVTVSS,low polyreactivity
10,QVQLVESGGGLVQAGGSLRLICAASGSIFITYDMGWYRQAPGKERELVATISTTGGTTYYADSVKGRFTISRDNAKNTVYLQMNSLKPEDTAVYYCATAGPPRGYYAPITLDDYWGQGTQVTVSS,low polyreactivity
11,QVQLVESGGGLVQAGGSLRLICAASGSIFPFNAMGWYRQAPGKERELVAAISSSGGSTSYADSVKGRFTISRDNAKNTVYLQMNSLKPEDTAVYYCNVRYRSAGSRYGYWGQGTQVTVSS,low polyreactivity
12,QVQLVESGGGLVQAGGSLRLICAASGSIFRYYAMGWYRQAPGKERELVADINGSGGSTYYADSVKGRFTISRDNAKNTVYLQMNSLKPEDTAVYYCATAYGWRRKYYGYDYCGQGTQVTVSS,high polyreactivity
13,QVQLVESGGGLVQAGGSLRLICAASGSIFSLYAMGWYRQAPGKQREFVASISRSGGITYYADSVKGRFTISRDNEKNTVYLQMISLKPEDTAVYYCAAVGWVSYRRYDYWGQGTQVTVSS,high polyreactivity
14,QVQLVESGGGLVQAGGSLRLICAASGSIFTPNALGWYRPAPGKERELVAAISSSSDRTYYADSVKGRFTISRDNAKNSVFLLMNSLKPEDTAVYYCAAYAQKRYYWGQGTQVTVSS,high polyreactivity
15,QVQLVESGGGLVQAGGSLRLICAASGSIFVGNAMCWYSQATGKERELVATITSGGSTYYADSVKGRFTISRDNAMNTVYLQMNSLKPEDTSVYNCAADYEFSKFDYVYWGQGTQVTVSS,low polyreactivity
16,QVQLVESGGGLVQAGGSLRLICAASGSIFVYNAMGSYRQAPAKERELVAAISQRGGSTYYADSVKGRFTISRDNAKNTVYLQMKSLKPEDTAVYYCAAGPGDSGDDYWGQGTQVTVSS,low polyreactivity
17,QVQLVESGGGLVQAGGSLRLICAASGSIFYANAMGWYRQAPGKEREFVAANSSSGGGTSYADSVKGRFTISRDNAKNTVYLQMNSLKPEDTAVYYCAARVTYGGIPARQIYDYWGQGTQVTVSS,low polyreactivity
18,QVQLVESGGGLVQAGGSLRLICAASGSIFYVNAMGWYRQEPGKERELVAGISRSGSSTYYADSVKGRFTISRDNAKNTVYLLMNSLKPEDTAVYYCNRVYQGRGWHDYWGQGTQVTVSS,high polyreactivity
19,QVQLVESGGGLVQAGGSLRLICAASGSILYYYVMGWYRQAPGKERQLVAAITSGGSTYYADSVKGRFTISRDNAKNNVYLQMNSLKPEDTAVYYCAVRPRRQYSPSRWGTGCYWGQGTQVTVSS,high polyreactivity
20,QVQLVESGGGLVQAGGSLRLICAASGSTFDSYAMGWYRQAPGKERELVAAISRSGGRTYYADSVKGRFTISRDNAKNTVYLQMNSLKPEDTAGYYCAAPVKVGHSLSGGDYWGQGTQVTVSS,high polyreactivity
21,QVQLVESGGGLVQAGGSLRLICAASGSTFEHYAMGWYRPAPGKERELVAAITRRGGSTYYADSVKGRFTISRDNAKNTVYLQMNSLKPEDTAVYDCNTDLRYSYYLPGYDYWGQGPQVTVSS,high polyreactivity
22,QVQLVESGGGLVQAGGSLRLICAASGSTFEQYAMGWYRQAPGKERELVAAINRGGSTYYADSVKGRFTISRDNAKNTVYLQMNSLKPEDTAVYYCAVYAFVRYRSRYGYWGQGTQVTVSS,high polyreactivity

row,Sequence,polyreactivity (PSR sort gate)
1,QVQLVESGGGLVQAGGSLRLICAASGSTFGPYAMGWYRQAPGKERELVADITVSDGSTYYADSVKGRFTISRDNAKNTVYLQMNSLNPEDTAVYYCAAEIYYSFGYWGQGTQVTVSS,low polyreactivity
2,QVQLVESGGGLVQAGGSLRLICAASGSTFGPYSMGWYRQAPGKEMELVAVITTSGSTNYADSVKGRFTISRDNAKNTVYLQMNSLKPEDTAVYYCAARYRYYGTNRYYYWGQGTQVTVSS,high polyreactivity
3,QVQLVESGGGLVQAGGSLRLICAASGSTFGVYAMGWYRQAPGKEREMVAAIRWSSGSTYYADSVKGRFTISRDNAKNTVYLQMNSLKPEDTAVYYCAKTRGIYNIRFGYWGQGTQVTVSS,high polyreactivity
4,QVQLVESGGGLVQAGGSLRLICAASGSTFIINAMGWYRQAPGKERELVARITQRGTSTFYADSVKGRFTISRDNAKNTVYLQMNSLKPDDTAVYYCAGRGSNSLGNKYDYWGQGTQVTVSS,high polyreactivity
5,QVQLVESGGGLVQAGGSLRLICAASGSTFIINAMGWYRQAPGKERELVARITQRGTSTFYADSVKGRFTISRDNAKNTVYLQMNSLKPEDTAVYYCAARGSKSLGNKYDYWGQGTQVTVSS,high polyreactivity
6,QVQLVESGGGLVQAGGSLRLICAASGSTFNNNAMGWFRQAPGKERELVAAISYTGGSTYYADSVKGRFTISRDNAKNNVYLQMNSLKPEDTAVYYCAADYPHLGGYRYDYWGQGTQVTVSS,high polyreactivity
7,QVQLVESGGGLVQAGGSLRLICAASGSTFPTYAMGWYRQAPGKERELVAAIDSSGGNTYYADSVKGRFTISRDNAKNTVYLQMNSLKPEDTEVYYCARESVTYFWYYTPEVDYWGQGTQVTVSS,low polyreactivity
8,QVQLVESGGGLVQAGGSLRLICAASGSTFQLYAMGWYRQAPGKERDLFAAISGIGDSTYYADSVKGRFTISRDNAKITVYLQMNSLKPEDTAVYYCAREFSDGLSGKFDYWGQRTQVTVSS,low polyreactivity
9,QVQLVESGGGLVQAGGSLRLICAASGSTFRNYAMGWYRQAPGKDRELVAAISRGDGTYYADSVKWRFTISRDNAKNTVYLLMNSLKPEYSAVYYCAAAYRGRQNPMGFWGQGTQVTVSS,high polyreactivity
10,QVQLVESGGGLVQAGGSLRLICAASGSTFRYYAMGWYRQAPGKEREFVAAITKGGSRTSYADSVKGRFTISRDNAKNTVYLQMNSLKPEDTAVYYCATAYYGGASQRNYGYWGQGTQVTVSS,high polyreactivity
11,QVQLVESGGGLVQAGGSLRLICAASGSTFVSNAMGWYRQAPGKERELVAAITVSGGRTYYADSVKGRFTISRDNAKNTVYLQMNSLKPEDTAVYYCAAQIYGKYDYWGQGTQVTVSS,low polyreactivity
12,QVQLVESGGGLVQAGGSLRLICAASGSTFWGYTMGWYRQAPGKERELVAAITRSSGRTYYADSVKGRFTISRDNAMNTVYLQFHSLKPEDTAVYYWNADAVGRRTWSPYDYWGQGSQVTVSS,high polyreactivity
13,QVQLVESGGGLVQAGGSLRLICAASGSTFYKYNMGWYRQAPGKERELVAAISGSGTTTYYADTVKGRFTISRDNAKNTVYLQMNSLKPEDTAVYYCAARRFSPGSSGHGYWGQGTQVTVSS,high polyreactivity
14,QVQLVESGGGLVQAGGSLRLICAASGSTFYPNAMGWYRPAPGKERELVAAITSAGSTYYADSVKGRFTISRDNAKNTVYLQMNSLKPEDTAVYYCAKRRASRYDWGQGTQVTVSS,high polyreactivity
15,QVQLVESGGGLVQAGGSLRLICAASGSTFYRYAMGWYRQAPGKERELVAAISSSGGSTYYADSVKGRFTISRDIAKNTVYLQMNSLKPEDTAVYYCNRYGSGHSFIYDYWGQGTQVTLSS,high polyreactivity
16,QVQLVESGGGLVQAGGSLRLICAASGSTFYYNAMGWYRQAPGKERELVAGITYRGGSTYYADSVKGRFTISRDNAKNTVYLQMNSLKPEDTAVYYCAARHYIWSQYYTRYDYWGQGTQVTVSS,high polyreactivity
17,QVQLVESGGGLVQAGGSLRLICAASGSTIFENVMGWYRQAPGKEREFVAAINTSGGSTYYADSVKGRFTISRDNAKNTVYLQMNILKPEDTAVYYCARDSYWEMDYWGQGTQVTVSS,low polyreactivity
18,QVQLVESGGGLVQAGGSLRLICAASGSTIVWNAMGWYRQAPGKERELVATITLSTGSTYYADSVKGRFTISRDNAKNTVYLQMNSLKPEDTAVYYCNTEIYVDIISVYGYWGQGTQVTVSS,low polyreactivity
19,QVQLVESGGGLVQAGGSLRLICAASGSTLIWNAMGWYRQAPGKEMELVAVISFSGVSTYYADSVKGRFTISRDNAKNTVYLQMNSLKPEDTAVYYCAAGRYLYNYYGYVDKYGYWGQGTQVTVSS,low polyreactivity
20,QVQLVESGGGLVQAGGSLRLICAASGSTLVANAMGGYRQAPGKERELVAAISSGGITYYADSVKGRFTISRDNAKNTVYLQMNSLKPEDTAVYYCAKRGQGFQFGRDYWGQGTQVTVSS,low polyreactivity
21,QVQLVESGGGLVQAGGSLRLICAASGSTNYRYAMGWYRQAPGKERELVATISSTGARTNYADSVKGRFTISRDNAKNTDYLQMNSLKPEDTAVYYCAASAPYIYYWGQGTQVTVSS,high polyreactivity
